In general, EC50 refers to the concentration that produces a half-maximal response. Lower therefore signals greater potency.

Experiment [1] concerns the target human PD-L1 on the cell surface (PD-L1 transfected HEK293, ES2, CHO PD-L1, engineered CHO cells) (human) (UniProt Q9NZQ7). The experiment can be described thus: flow cytometry on engineered CHO cells; four-parameter sigmoidal fit, ECf.
Experiment [2] has the same target. Nature of the experiment: flow cytometry on engineered CHO cells; four-parameter sigmoidal fit, 50% occupancy. On the technique in general: A flow cytometer gives signals particle by particle.
The target in experiment [3] is human OX40 and human PD-L1 expressed together on engineered CHO cells (human) (UniProt P43489). Nature of the experiment: flow cytometry on engineered CHO cells, AF647 anti-human IgG; apparent KD, one site specific binding fit.
The target of experiment [4] is human PD-L1 on the cell surface (PD-L1 transfected HEK293, ES2, CHO PD-L1, engineered CHO cells) (human) (UniProt Q9NZQ7). Described as above.
human PD-L1 on the cell surface (PD-L1 transfected HEK293, ES2, CHO PD-L1, engineered CHO cells) (human), sequence (Q9NZQ7 19-290, change not shown): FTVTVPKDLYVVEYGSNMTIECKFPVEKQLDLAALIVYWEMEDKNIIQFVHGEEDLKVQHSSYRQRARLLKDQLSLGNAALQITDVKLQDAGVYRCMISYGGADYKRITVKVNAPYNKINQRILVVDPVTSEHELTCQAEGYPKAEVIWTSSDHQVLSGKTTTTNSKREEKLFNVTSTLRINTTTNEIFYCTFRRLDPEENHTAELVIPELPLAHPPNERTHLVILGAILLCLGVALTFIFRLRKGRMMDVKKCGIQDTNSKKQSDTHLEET

In experiment [1], “MEDI5615 (PD-L1/OX40L BFP2 bispecific molecule, IgG4P)” returned a concentration for 20% occupancy (EC20) of 22 pM and a concentration for 90% occupancy (EC90) of 790 pM. In experiment [2], this substance came in with an EC50 of 88 pM. In experiment [3], the Kd worked out at 270 pM. Besides, in experiment [4], the Kd came to 88 pM.

The record behind these values is patent US20190241659A1.
